Results: patent publication US20080248008A1, “Inhibitors of Protein Kinase a Anchoring” (priority 2004, published 2008)

How the values were obtained:
[1] = target: T1, PKA-type II in lipid rafts of human peripheral blood T cells (Homo sapiens, UniProt P13861); assay: PKA type II content of lipid rafts from human T cells; format: cell-based; details: n=4
T1 construct: endogenous in cells; host or cells: human peripheral blood CD3+ T cells
Method: Lipid Raft Purification. Isolation of lipid rafts or glycolipid-enriched membrane microdomains was performed as described in detail elsewhere (Zhang, W. et al., 1998, Immunity 9:239-246). In brief, cells were homogenized in 1 ml ice-cold lysis buffer (50 mM Hepes, pH 7.4, 100 mM NaCl, 5 mM EDTA, […], 10 mM sodium pyrophosphate, 1 mM Na3VO4, 50 mM NaF, 1 mM PMSF, and protease inhibitors) by 10 pestle strokes in a Dounce homogenizer, loaded at the bottom of a 40-5% sucrose gradient and centrifuged at 200,000 g for 5 or 20 h. 80 μl or 0.4-ml fractions were collected from the top. The fractions were analysed by immunoblot analysis. LAT was used as a marker for lipid raft fractions.
Lipid rafts were purified from isolated human peripheral blood T cells treated with MEME3-Arg11 or SM3-Arg11 for 12 hours, followed by 10% PAGE and blotting onto a PVDF membrane and immunoblotting (FIG. 18, left panel). The PKA content was measured by densitometry of immunoblots (n=4). PKA type I in cells treated with 10 μM or 25 μM M3-Arg11 was reduced by 80% and 90%, respectively. The very weak signal observed after immunoblotting using antibodies against RIIα (data not shown) was measured by densitometry of the autoradiogram. The PKA-type II level was not reduced in lipid rafts from human peripheral blood T cells treated with MEME3-Arg11 (FIG. 18, right panel, n=4).

[2] = target: T2, PKA-RIIα (Mus musculus, UniProt P12367); assay: Solid phase immobilization from Y-1 adrenal cell lysate, PKA-RIIα; format: binding; details: overnight
T2 construct: host or cells: mouse Y-1 adrenocortical cells (lysate)
T2 sequence (P12367 whole entry): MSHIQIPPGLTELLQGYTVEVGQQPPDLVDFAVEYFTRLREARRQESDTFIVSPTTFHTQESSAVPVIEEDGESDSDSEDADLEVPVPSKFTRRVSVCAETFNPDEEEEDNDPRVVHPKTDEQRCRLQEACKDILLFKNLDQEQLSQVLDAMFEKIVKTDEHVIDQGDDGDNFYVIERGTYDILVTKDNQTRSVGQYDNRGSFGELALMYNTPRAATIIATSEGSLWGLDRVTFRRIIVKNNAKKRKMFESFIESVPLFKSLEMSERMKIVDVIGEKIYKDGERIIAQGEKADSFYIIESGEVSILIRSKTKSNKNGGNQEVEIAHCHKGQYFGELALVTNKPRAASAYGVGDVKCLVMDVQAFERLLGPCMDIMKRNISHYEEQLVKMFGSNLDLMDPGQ
Method: (§1) Solid phase assay and cell lysate. 5×10^6 Y1 cells or 20×10^6 Jurkat T cells lysed in 150 mM NaCl, 1% NP-40, 0.5% deoxycholate, 0.1% SDS and 50 mM Tris HCl (7.8) were incubated overnight at 4° C. with MEME3 and SM3 peptides synthesized on membranes (Autospot, Intavis, AG). The membranes were washed two times for 10 minutes in lysis buffer and thereafter in high salt lysis buffer (1 M NaCl) before boiling in SDS-PAGE loading buffer.
A solid phase immobilization assay (schematic illustration in FIG. 24, left panel) was used to analyse endogenous PKA binding to MEME3. MEME3 and SM3 peptides synthesized in triplicate on membranes were incubated overnight in lysate from Y-1 adrenal cells. Thereafter bound proteins were eluted, subjected to 10% PAGE and analysed by immunoblotting using specific antibodies against PKA-RIα, PKA-C and PKA-RIIα subunits.

[3] = target: PKA-RIα (Homo sapiens, UniProt P10644); assay: Solid phase pull down from T cell lysate, PKA-RIα; format: binding; set-up: endogenous in cells; host or cells: Jurkat T cells; details: overnight
Method: as §1
Solid phase pull down (see schematic illustration in FIG. 24A, left panel) was performed to analyse endogenous PKA binding to MEME3. MEME3 and SM3 peptides synthesized in triplicate on membranes were incubated overnight in T cell lysate, thereafter bound proteins were eluted, subjected to 10% PAGE electrophoresis and analysed by immunoblotting (FIG. 11). The presence of PKA subunits was assessed by immunoblotting using specific antibodies against PKA-RIα and PKA-RIIα subunits.

[4] = target: T3, RIα (Bos taurus, UniProt P00514); assay: Fluorescence polarization, dissociation constant for RI; format: binding, bovine; details: qualitative
T3 construct: made in house; host or cells: E. coli BL21 (B121 [sic])
T3 sequence (P00514 whole entry): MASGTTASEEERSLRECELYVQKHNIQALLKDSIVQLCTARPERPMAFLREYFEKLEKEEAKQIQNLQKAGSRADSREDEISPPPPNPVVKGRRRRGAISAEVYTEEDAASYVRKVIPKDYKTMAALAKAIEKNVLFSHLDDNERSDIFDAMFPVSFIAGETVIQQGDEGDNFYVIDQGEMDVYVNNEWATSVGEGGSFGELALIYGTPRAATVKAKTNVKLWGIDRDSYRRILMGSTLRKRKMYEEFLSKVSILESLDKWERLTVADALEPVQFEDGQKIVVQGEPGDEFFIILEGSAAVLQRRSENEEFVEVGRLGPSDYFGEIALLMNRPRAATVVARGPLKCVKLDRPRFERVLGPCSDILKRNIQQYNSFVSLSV
Method: Fluorescence Polarization. FITC-labeled peptides (SynPep, San Diego) that were used for fluorescence polarization studies included MEME3 (LEQYANQLADQIIKEATEK(5-Carboxyfluorescein)-CONH2) and MEME3 scrambled peptide (IEKELAQQYQNADAITLEK(5-Carboxyfluorescein)-CONH2). Peptides (0.5 nM for RI experiments and 1 nM for RII experiments) were suspended to working dilutions in phosphate-buffered saline containing 5 μg/μl BSA, pH 7.0. Increasing concentrations of recombinant bovine RI wt or recombinant murine RII were added to a PBS solution and mixed with each FITC-labeled peptide. Each sample was incubated for 2.5 hours. Fluorescence polarization was measured on a Beacon 2000 (Panvera, Madison, Wis.), following the manufacturer's instructions. Saturation binding curves were generated with PRISM graphing software (GraphPad, San Diego). Dissociation constants (Kd) were calculated from the nonlinear regression curve from averages of minimum three individual experiments.
Protein expression and purification. Human RI, Bovine RI and N-terminal deletions thereof or murine RII was expressed in E. coli B121 by IPTG induction. The RI containing pellet was incubated in lysis buffer (10 mM MOPS, pH 6.5, 100 mM NaCl, 10 μM DTT added protease inhibitors) and sonicated (Branson Sonifier 250) for 1 minute in three intervals at 0° C. […]

T1 sequence (P13861 whole entry): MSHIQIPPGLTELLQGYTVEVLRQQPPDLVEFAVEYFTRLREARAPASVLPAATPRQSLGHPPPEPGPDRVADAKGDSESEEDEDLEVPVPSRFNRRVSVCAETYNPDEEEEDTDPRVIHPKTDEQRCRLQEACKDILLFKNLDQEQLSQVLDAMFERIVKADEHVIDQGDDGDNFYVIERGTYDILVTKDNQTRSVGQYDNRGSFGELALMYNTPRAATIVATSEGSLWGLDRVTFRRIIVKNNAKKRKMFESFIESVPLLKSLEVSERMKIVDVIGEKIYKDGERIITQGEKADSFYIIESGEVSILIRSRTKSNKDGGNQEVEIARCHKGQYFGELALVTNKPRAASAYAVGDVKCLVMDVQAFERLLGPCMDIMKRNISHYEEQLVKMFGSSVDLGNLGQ

Row | immobilization of PKA-RIα [3] | interaction with RI subunit [4] | interaction with RI subunit ([4]; listed as control peptide) | Substance | PKA-type II level in lipid rafts [1] | immobilization of PKA-RIIα [2]
1 |  |  |  | LEQYANQLADQIIKEATERRRRRRRRRrr [MEME3-Arg11] | not reduced | 
2 | Neither PKA-RIα nor PKA-RIIα bound | No RIα binding | did not interact with either R subunit | IEKELAQQYQNADAITLE [SM3, scrambled MEME3 negative control peptide, reference compound] |  | Neither PKA-RIα, PKA-C nor PKA-RIIα were immobilized
